Data taken from US20230035859A1, “COMPOSITIONS AND METHODS FOR EPITOPE SCANNING” (priority 2019, published 2023).

Assays:
HLA-A*02:01 [1] = molecular target: T1, HLA-A*02:01 (Homo sapiens, UniProt P04439, D140Y/D185E/D98H/E176V/E277Q/G131W/G231S/I119V/I121R/I166T/I218V/L300P/L318F/N151K/N90K/P208A/P217A/Q86G/Q94H/R138H/R169H/T345S); test: QuickSwitch Quant HLA-A*02:01 Tetramer control peptide exchange
HLA-A*02:01 [2] = molecular target: T1, HLA-A*02:01; type: cell-based
CD8+ T cells = type: cell-based, human; design: key: y = yes; TBD = to be determined
[3] = cited from earlier work
HLA-B*57:01 = HLA-B*57:01 (Homo sapiens, UniProt P01889, D201E/D98Y/E176V/E187L/E204Q/E69M/E70A/G107R/I90N/K202T/L105A/L119I/N104I/N87E/Q89R/Q94S/R106L/R155S/R180L/R86G/S101N/S121V/S35A/S48A/T118I/V36M/Y140S/Y91M); test: Random 9-mer EpiScan screen in HLA-B57-expressing EpiScan cells with and without abacavir; type: cell-based; conditions: 48 h abacavir treatment at 6 μM

| Compound | % Peptide Exchange (HLA-A*02:01 [1]) [%] | EpiScan MFI (HLA-A*02:01 [2]) | Patient tetramer positivity? (CD8+ T cells) | also measured |
| --- | --- | --- | --- | --- |
| SLPGVFCGV [SARS-CoV-2 HLA-A*02:01 peptide used for tetramer staining] | 98.00 | 6.418 | y | – |
| VLYQDVNCTEV [SARS-CoV-2 HLA-A*02:01 peptide used for tetramer staining] | 97.92 | 5.598 | – | – |
| YIDIGNYTV [SARS-CoV-2 HLA-A*02:01 peptide used for tetramer staining] | 97.94 | 4.421 | – | – |
| AMDEFIERYKL [SARS-CoV-2 Orf1ab 6669-6679; used for tetramer staining] | 96.89 | 2.352 | – | – |
| VMAYITGGVV [SARS-CoV-2 HLA-A*02:01 peptide used for tetramer staining] | 99.07 | 4.641 | y | – |
| VMAYITGGV [SARS-CoV-2 Orf1ab 597-605; used for tetramer staining] | 99.07 | 4.528 | – | – |
| TLATHGLAAV [SARS-CoV-2 HLA-A*02:01 peptide used for tetramer staining] | 97.98 | 4.040 | – | – |
| Nc1nc(NC2CC2)c2ncn([C@H]3C=C[C@@H](CO)C3)c2n1 [Abacavir] | – | – | – | hypersensitivity, share of patients [3]: around 5%; binding peptides with C-terminal Residue C, Abacavir treated (HLA-B*57:01): 3; binding peptides with C-terminal Residue F, Abacavir treated (HLA-B*57:01): 66; binding peptides with C-terminal Residue G, Abacavir treated (HLA-B*57:01): 4; binding peptides with C-terminal Residue I, Abacavir treated (HLA-B*57:01): 59; binding peptides with C-terminal Residue L, Abacavir treated (HLA-B*57:01): 10; binding peptides with C-terminal Residue M, Abacavir treated (HLA-B*57:01): 5; binding peptides with C-terminal Residue N, Abacavir treated (HLA-B*57:01): 1; binding peptides with C-terminal Residue R, Abacavir treated (HLA-B*57:01): 3; binding peptides with C-terminal Residue V, Abacavir treated (HLA-B*57:01): 28; binding peptides with C-terminal Residue W, Abacavir treated (HLA-B*57:01): 502; binding peptides with C-terminal Residue Y, Abacavir treated (HLA-B*57:01): 22 |
| VMVELVAEL [SARS-CoV-2 HLA-A*02:01 peptide used for tetramer staining] | 98.63 | 5.338 | y | – |
